Where a chain is given by its changes, count along the chain named.

Assay [1] deals with T1, huZIP12-ECD-GST (human, UniProt Q504Y0 24-202).
T1 construct: also called hZIP12-ECD-GST; human ZIP12-ECD-GST; not shown: glutathione S-transferase (GST) tag
Description: SPR single cycle kinetics, 2.34-600 nM huZIP12-ECD-GST, extended dissociation; re-test, lower concentrations, extended dissociation. The protocol:
(§1) Single Cycle Kinetics (SCK) involves first capturing the mAb onto the protein A sensor surface and then sequentially injecting a series of concentrations of huZIP12-ECD-GST over the surface starting at the lowest concentration and ending with the highest concentration. The final concentration is followed by a dissociation phase where buffer only is passed across the surface followed by regeneration, where the remaining bound huZIP12-ECD-GST is removed from the surface by injection of a 10 mM Glycine pH 1.5 and 50 mM NaOH solution. The SCK is repeated for each monoclonal antibody providing duplicate data and the kinetics of each interaction is evaluated by the Biacore software.
(§2) A selection of the higher affinity antibody variants were re-tested at a lower concentration series with an extended dissociation time with the objective of obtaining a better assessment of the binding kinetics. Referring now to FIG. 7, there are shown the data for the monoclonal antibodies that were re-tested to optimise the binding kinetic data. Once again, three antibody variants, H3_W99H_L1, H3_W99HL2 and H3_W99H_VL-par, all appear to have a higher affinity than the parent antibody. The on-rate (ka), off-rate (kd) and overall affinity measurement (KD) are all improved compared to the 51B12 VH_VL_par parent antibody.

In assay [2] the target is T1, huZIP12-ECD-GST. Description: HTRF competition: unlabelled antibody against Tb-labelled 51B12-parent on hZIP12-ECD-GST, detected with anti-GST-XL665. The protocol: Homogeneous Time Resolved Fluorescence (HTRF) assays were used to analyse the antibodies. A checkerboard assay was performed to validate the binding of the terbium labeled-antibody with hZIP12-ECD-GST. Serial dilutions (starting at 1000 ng/ml, semi-log dilutions) of Terbium-labeled 51B12-parent were incubated with serial dilutions of hZIP12-ECD-GST (starting at 5000 ng/ml, semi-log dilutions) followed by incubation with anti-GST-XL665. After excitation (320 nm), emission signals were obtained and HTRF ratio was calculated (665 nm/615 nm, Panel A). Signal/background ratios (S/B) were calculated from the HTRF ratios (0 ng/ml hZIP12-ECD-GST as background signal) and plotted against the Tb-51B12-parent concentration. The combinations 500 ng/ml hZIP12-ECD-GST+50 ng Tb-Ab, 150 ng/ml hZIP12-ECD-GST+50 ng Tb-Ab and 50 ng/ml hZIP12-ECD-GST+50 ng Tb-Ab were chosen as range for the competition assay. For the HTRF assay, 150 ng/ml hZIP12-ECD-GST+30 ng/ml Tb-51B12 was selected.
On the technique in general: In TR-FRET formats the signal depends on donor and acceptor labels being close together.

Assay [3] concerns the target T1, huZIP12-ECD-GST. Description: SPR single cycle kinetics (Biacore): mAb captured on protein A, huZIP12-ECD-GST injected at 2.34-600 nM, extended dissociation. As for the experimental part: as §1, §2
For assay [4], the target named is T1, huZIP12-ECD-GST. In words: SPR single cycle kinetics (Biacore): mAb captured on protein A, huZIP12-ECD-GST injected; mean±SD of the control runs. The protocol: as §1
(Surface plasmon resonance follows binding to a sensor surface in real time, without labels.)

The target in assay [5] is T1, huZIP12-ECD-GST. Description: SPR single cycle kinetics (Biacore): mAb captured on protein A, huZIP12-ECD-GST injected at 3.12-800 nM. As for the experimental part:
as §1
(§3) Referring to FIG. 6, there are shown the kinetic parameters obtained for all antibody variants when screened with the 3.12 nM to 800 nM huZIP12-ECD-GST. […] Affinity.

Assay [6] deals with T1, huZIP12-ECD-GST. In words: SPR single cycle kinetics, mAb captured on protein A, 3.12-800 nM huZIP12-ECD-GST. As for the experimental part: as §1, §3

T1 sequence (Q504Y0 24-202): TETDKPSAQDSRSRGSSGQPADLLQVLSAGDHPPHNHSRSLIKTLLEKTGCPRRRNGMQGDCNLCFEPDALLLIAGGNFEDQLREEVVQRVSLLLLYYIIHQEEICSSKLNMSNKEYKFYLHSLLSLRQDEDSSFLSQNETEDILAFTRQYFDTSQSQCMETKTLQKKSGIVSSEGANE

B1: 51B12 parent (antibody, V domains shown)
VH: QVQLVESGGGVVQPGRSLRLSCAASGFTFSDYGMHWVRQAPGKGLEWVAYISSGGTTIYYADTVKGRFTISRDNSKNTLYLQMNSLRAEDTAVYYCARWTNLYAMDYWGQGTTVTVSS
VL: DIVLTQSPDSLAVSLGERATINCRASKSVSTSGYSYMHWYQQKPGQPPKFLIYLASNLESGVPDRFSGSGSGTDFTLTISSLQAEDVAVYYCQHSREVPYTFGGGTKVEIKR
notes: Fc null human IgG1 / human kappa
As for B1, the Kd in the assay with huZIP12-ECD-GST [1] was 1100 pM; with huZIP12-ECD-GST [3], 1090 pM; with huZIP12-ECD-GST [4], 969 pM. Further, the “IC50 (read off the curve)” value with huZIP12-ECD-GST [2] was about 0.2 µg/mL. Further, the koff with huZIP12-ECD-GST [3] amounted to 3e-05 s⁻¹; with huZIP12-ECD-GST [4] it was 2.66e-05 s⁻¹. Moreover, the kon with huZIP12-ECD-GST [3] was 27500 M⁻¹ s⁻¹.

B2: H2_T63Y_VL-par (antibody, V domains shown)
VH: B1 VH with T63Y
VL: B1 VL
notes: as for B1
In the assay with huZIP12-ECD-GST [5], B2 gave a Kd of 1030 pM, a koff of 3.04e-05 s⁻¹ and a kon of 29600 M⁻¹ s⁻¹. In addition, in the assay with huZIP12-ECD-GST [3], binding was characterised by a dissociation constant (Kd) of 868 pM, the koff was found to be 2.51e-05 s⁻¹ and the kon is 28900 M⁻¹ s⁻¹.

B3: H2_T57H_VL-par (antibody, V domains shown)
VH: B1 VH with T57H
VL: B1 VL
notes: as for B1
In the assay with huZIP12-ECD-GST [5], B3 showed a Kd of 791 pM, a koff of 3.47e-05 s⁻¹ and a kon of 43900 M⁻¹ s⁻¹. In the assay with huZIP12-ECD-GST [3], this molecule came in with an equilibrium dissociation constant (Kd) of 792 pM, a koff of 3.3e-05 s⁻¹ and a kon of 41600 M⁻¹ s⁻¹.

B4: H2_T63Y_L1 (antibody, V domains shown)
VH: B1 VH with T63Y
VL: B1 VL with S32Q
notes: as for B1
On to B4, for which, in the assay with huZIP12-ECD-GST [5], binding was characterised by a dissociation constant (Kd) of 1070 pM, the koff turned out to be 3.16e-05 s⁻¹ and the kon is 29600 M⁻¹ s⁻¹. In addition, in the assay with huZIP12-ECD-GST [3], the Kd came to 1340 pM, the koff was determined as 3.68e-05 s⁻¹ and the kon turned out to be 27500 M⁻¹ s⁻¹.

B5: H3_W99H_VL-par (antibody, V domains shown)
VH: B1 VH with W99H
VL: B1 VL
notes: as for B1
As for B5, the Kd was 481 pM with huZIP12-ECD-GST [5], about 500 pM in the assay with huZIP12-ECD-GST [6] and 322 pM with huZIP12-ECD-GST [3]. Also, the koff in the assay with huZIP12-ECD-GST [5] worked out at 4.67e-05 s⁻¹; with huZIP12-ECD-GST [3], 3.29e-05 s⁻¹. Further, the kon is 97100 M⁻¹ s⁻¹ with huZIP12-ECD-GST [5] and 102000 M⁻¹ s⁻¹ in the assay with huZIP12-ECD-GST [3].

B6: H2_T57H_L1 (antibody, V domains shown)
VH: B1 VH with T57H
VL: B1 VL with S32Q
notes: as for B1
In the assay with huZIP12-ECD-GST [5], B6 had a Kd of 743 pM, a koff of 3.3e-05 s⁻¹ and a kon of 44400 M⁻¹ s⁻¹. In the assay with huZIP12-ECD-GST [3], the Kd was 971 pM, the koff turned out to be 4.18e-05 s⁻¹ and the kon turned out to be 43100 M⁻¹ s⁻¹.

B7: H2_Y60K_L1 (antibody, V domains shown)
VH: B1 VH with Y60K
VL: B1 VL with S32Q
notes: as for B1
In the assay with huZIP12-ECD-GST [5], B7 displayed a Kd of 957 pM, an off-rate constant (koff) of 3.7e-05 s⁻¹ and a kon of 38600 M⁻¹ s⁻¹. Moreover, in the assay with huZIP12-ECD-GST [3], binding was put at a Kd of 604 pM, the koff is 2.25e-05 s⁻¹ and the kon was 37200 M⁻¹ s⁻¹.

B8: H2_Y60K_VL-par (antibody, V domains shown)
VH: B1 VH with Y60K
VL: B1 VL
notes: as for B1
In the assay with huZIP12-ECD-GST [5], B8 had a Kd of 1090 pM, a koff of 4.01e-05 s⁻¹ and a kon of 36700 M⁻¹ s⁻¹. In the assay with huZIP12-ECD-GST [3], this molecule displayed a Kd of 829 pM, a koff of 3.26e-05 s⁻¹ and a kon of 39400 M⁻¹ s⁻¹.

B9: H2_T56H_VL-par (antibody, V domains shown)
VH: B1 VH with T56H
VL: B1 VL
notes: as for B1
In the assay with huZIP12-ECD-GST [5], B9 yielded a Kd of 1290 pM, a koff of 3.38e-05 s⁻¹ and a kon of 26200 M⁻¹ s⁻¹. In the assay with huZIP12-ECD-GST [3], this molecule yielded a Kd of 591 pM, a koff of 1.51e-05 s⁻¹ and a kon of 25600 M⁻¹ s⁻¹.

B10: H3_W99H_L2 (antibody, V domains shown)
VH: B1 VH with W99H
VL: B1 VL with L58K
notes: as for B1
Turning to B10, the Kd with huZIP12-ECD-GST [5] is 472 pM; with huZIP12-ECD-GST [6], about 500 pM; with huZIP12-ECD-GST [3], 339 pM. Also, the koff with huZIP12-ECD-GST [5] was 3.98e-05 s⁻¹; with huZIP12-ECD-GST [3], 3.16e-05 s⁻¹. Further, the kon is 84300 M⁻¹ s⁻¹ with huZIP12-ECD-GST [5] and 93100 M⁻¹ s⁻¹ in the assay with huZIP12-ECD-GST [3].

What is called Kd is a measure of binding affinity in units of concentration. Read a high Kd as a looser complex. A word on the koff: it is the first-order rate constant of dissociation. Read a high koff as a short-lived complex. A word on the kon: it is a measure of how fast the partners come together. A high value points to fast association.

Source of the values: patent US20260109761A1 (IP2IPO INNOVATIONS, published 2026).
